Laboratory results as given in patent US20140178935A1 (AVEO PHARMACEUTICALS, published 2014).

Assays:
[1] = molecular target: T1, recombinant human HGF (R&D Systems, Catalog No. 294-HGN-025) (human, UniProt P14210 32-728); assay: cell-based or functional assay
[2] = molecular target: T1, recombinant human HGF (R&D Systems, …); assay: cell-based or functional assay; remark: listed apart in the source
[3] = molecular target: T1, recombinant human HGF (R&D Systems, …); assay: SPR, captured antibody, HGF injected, 37 C
Protocol: Mouse anti-human immunoglobulins (Jackson Labs, Catalog No. 209-005) or rabbit anti-mouse immunoglobulins (BIAcore, Catalog No. BR-1005-14) were immobilized on carboxymethylated dextran CM4 sensor chips (BIAcore, Catalog No. BR-1006-68) by amine coupling (BIAcore, Catalog No. BR-1000-50) using a standard coupling protocol according to manufacturer's instructions. […] The analyses were performed at 25° C. and 37° C. using PBS (GIBCO, Catalog No. 14040-133) containing 0.05% surfactant P20 (BIAcore, Catalog No. BR-1000-54), and 2 mg/mL BSA (EMD, Catalog No. 2930) as running buffer.
The antibodies were captured in an individual flow cell at a flow rate of […]. Injection time was variable for each antibody to yield approximately 20 RU of antibody captured for each cycle. […] The dissociation phase was monitored for 15 or 90 minutes, depending on concentration. The surface of mouse anti-human immunoglobulins sensor chips was then regenerated with 10 mM Glycine-HCl, pH 2.2 (BIAcore, Catalog No. BR-1003-54) injected for 3 minutes at a flow rate of 60 μL/min before another cycle was initiated. The surface of rabbit anti-mouse immunoglobulins sensor chips was regenerated with 10 mM Glycine-HCl, pH 1.7 (BIAcore, Catalog No. BR-1003-54) injected for 3 minutes at a flow rate of 60 μL/min before another cycle was initiated.
Kinetic parameters were determined using the kinetic function of the BIAevaluation software with reference subtraction.

[4] = molecular target: T2, recombinant mouse HGF (R&D Systems) (mouse, UniProt Q08048 33-728); assay: SPR, antibody immobilized, HGF protein injected, 25 C
T2 construct: Bought protein, construct not described; also called rmHGF (R&D Systems); murine HGF
Protocol: (§1) Analyses were performed at 25° C. using PBS (GIBCO, Catalog No. 14040-133) containing 0.05% surfactant P20 (BIAcore, Catalog No. R-1000-54), 2 mg/mL BSA (EMD, Catalog No. 2930) and 10 mg/mL CM-Dextran Sodium salt (Fluka, Catalog No. 86524) as running buffer. […] The resulting binding was determined as resonance units (RU) over baseline 30 seconds after the end of injection. […] Non-specific binding was monitored by comparing binding to a control surface.

[5] = molecular target: T3, recombinant mhm chimeric HGF protein containing human W507-L585 HGF sequence disposed within mouse HGF … (mouse-human-mouse chimera, UniProt Q08048 56-728); assay: as above
T3 construct: CHO supernatant; also called mhm chimera (W507-L585); MHM chimera (507-585)
T3 chain: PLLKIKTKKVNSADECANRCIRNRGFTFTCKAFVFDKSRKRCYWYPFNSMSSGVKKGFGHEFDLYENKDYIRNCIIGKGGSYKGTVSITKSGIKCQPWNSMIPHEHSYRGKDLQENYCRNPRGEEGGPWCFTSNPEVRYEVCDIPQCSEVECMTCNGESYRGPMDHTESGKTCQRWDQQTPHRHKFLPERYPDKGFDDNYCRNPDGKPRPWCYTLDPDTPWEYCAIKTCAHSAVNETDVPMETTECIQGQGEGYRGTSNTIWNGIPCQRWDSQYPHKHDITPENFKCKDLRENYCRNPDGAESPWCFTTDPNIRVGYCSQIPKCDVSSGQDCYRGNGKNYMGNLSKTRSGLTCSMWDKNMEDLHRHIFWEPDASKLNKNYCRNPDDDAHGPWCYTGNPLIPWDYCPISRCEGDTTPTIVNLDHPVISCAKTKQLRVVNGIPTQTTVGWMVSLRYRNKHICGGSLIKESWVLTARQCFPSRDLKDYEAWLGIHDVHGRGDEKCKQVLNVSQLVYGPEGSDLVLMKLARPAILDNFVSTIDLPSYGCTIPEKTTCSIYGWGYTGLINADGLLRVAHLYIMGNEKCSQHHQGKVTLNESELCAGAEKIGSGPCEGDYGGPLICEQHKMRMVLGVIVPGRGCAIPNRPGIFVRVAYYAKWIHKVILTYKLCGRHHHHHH
Protocol: as §1

[6] = molecular target: T4, recombinant mhm chimeric HGF protein containing the region I499-R556 of hHGF disposed between murine sequences (mouse-human-mouse chimera, UniProt Q08048 56-728); assay: as above
T4 construct: also called mhm chimera (I499-R556)
T4 chain: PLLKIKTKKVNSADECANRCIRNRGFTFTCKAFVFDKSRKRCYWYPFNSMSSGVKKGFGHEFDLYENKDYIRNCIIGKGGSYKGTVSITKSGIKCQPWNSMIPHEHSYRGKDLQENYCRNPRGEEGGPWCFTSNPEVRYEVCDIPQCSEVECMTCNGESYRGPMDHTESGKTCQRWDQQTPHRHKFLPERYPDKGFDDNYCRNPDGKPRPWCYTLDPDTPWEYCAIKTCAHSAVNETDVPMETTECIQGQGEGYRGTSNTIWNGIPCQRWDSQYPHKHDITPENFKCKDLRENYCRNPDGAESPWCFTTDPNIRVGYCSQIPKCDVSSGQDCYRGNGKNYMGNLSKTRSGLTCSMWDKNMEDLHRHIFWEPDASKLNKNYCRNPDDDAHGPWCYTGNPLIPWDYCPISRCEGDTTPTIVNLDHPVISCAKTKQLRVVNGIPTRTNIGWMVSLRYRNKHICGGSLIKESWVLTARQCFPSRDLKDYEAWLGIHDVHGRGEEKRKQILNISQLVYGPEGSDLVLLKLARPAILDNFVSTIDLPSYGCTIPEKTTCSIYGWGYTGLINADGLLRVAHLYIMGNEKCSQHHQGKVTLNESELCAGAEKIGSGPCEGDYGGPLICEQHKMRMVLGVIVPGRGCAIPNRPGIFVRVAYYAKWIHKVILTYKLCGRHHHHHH
Protocol: as §1

[7] = molecular target: T1, recombinant human HGF (R&D Systems, …); assay: competition ELISA (DELFIA): antibody inhibits biotinylated c-Met binding to plate-coated HGF
Protocol: The plates then were blocked with 200 μL of 5% non-fat dry milk in PBS for 1 hour at room temperature. […] 100 μL of sample per well was transferred to the assay plate and incubated for 2 hours at room temperature. The resulting plates were washed three times with PBS-0.1% Tween 20, and incubated for 1 hour at room temperature with Eu-labeled Streptavidin (Wallac, Catalog No. 1244-360) diluted 1:1000 in DELFIA assay buffer (Wallac, Catalog No. 4002-0010). The resulting plates were washed 3 times with DELFIA wash solution (Wallac, Catalog No. 4010-0010) and incubated with 100 μL/well DELFIA enhancement solution (Wallac #4001-0010) for 15 minutes at room temperature with agitation. The plates were read on Victor³V instrument (Perkin Elmer) using the Europium method. The IC₅₀ values were calculated using Prism.

[8] = molecular target: T1, recombinant human HGF (R&D Systems, …); assay: SPR, captured antibody, HGF injected, 25 C
Protocol: Mouse anti-human immunoglobulins (Jackson Labs, Catalog No. 209-005) were immobilized on carboxymethylated dextran CM4 sensor chips (BIAcore, Catalog No. BR-1006-68) by amine coupling (BIAcore, Catalog No. BR-1000-50) using a standard coupling protocol according to manufacturer's instructions. The analyses were performed at 25° C. using PBS (GIBCO, Catalog No. 14040-133) containing 0.05% surfactant P20 (BIAcore, Catalog No. BR-1000-54), and 2 mg/mL BSA (EMD, Catalog No. 2930).
The antibodies were captured in an individual flow cell at a flow rate of 10 μL/min. Injection time was variable for each antibody to yield approximately 20 RU of antibody captured for each cycle. […] The dissociation phase was monitored for 15 or 90 minutes, depending on concentration. The surface then was regenerated with 10 mM Glycine-HCl, pH 2.2 (BIAcore, Catalog No. BR-1003-54) injected for 3 minutes at a flow rate of 60 μL/min before another cycle was initiated.
Kinetic parameters were determined using the kinetic function of the BIAevalutation™ software with reference subtraction.

T1 sequence (P14210 32-728 limits assumed): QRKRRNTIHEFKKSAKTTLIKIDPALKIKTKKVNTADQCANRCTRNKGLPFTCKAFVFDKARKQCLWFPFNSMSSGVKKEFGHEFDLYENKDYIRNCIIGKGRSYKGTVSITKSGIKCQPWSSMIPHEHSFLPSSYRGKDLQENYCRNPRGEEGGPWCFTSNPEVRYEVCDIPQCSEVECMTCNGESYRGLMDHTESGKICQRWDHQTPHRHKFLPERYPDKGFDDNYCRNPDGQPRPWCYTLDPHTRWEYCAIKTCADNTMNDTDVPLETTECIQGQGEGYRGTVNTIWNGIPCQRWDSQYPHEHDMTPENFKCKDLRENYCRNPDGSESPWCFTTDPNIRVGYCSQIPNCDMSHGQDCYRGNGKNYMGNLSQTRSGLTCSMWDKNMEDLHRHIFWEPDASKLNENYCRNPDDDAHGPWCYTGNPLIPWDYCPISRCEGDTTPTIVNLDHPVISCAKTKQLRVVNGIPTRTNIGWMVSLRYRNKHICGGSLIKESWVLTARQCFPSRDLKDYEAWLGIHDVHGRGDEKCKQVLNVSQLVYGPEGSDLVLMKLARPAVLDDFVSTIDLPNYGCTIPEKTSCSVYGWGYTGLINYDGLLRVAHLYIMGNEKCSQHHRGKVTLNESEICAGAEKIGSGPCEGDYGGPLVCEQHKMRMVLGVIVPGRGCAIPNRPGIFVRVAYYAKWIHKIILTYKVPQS
T2 sequence (Q08048 33-728 limits assumed): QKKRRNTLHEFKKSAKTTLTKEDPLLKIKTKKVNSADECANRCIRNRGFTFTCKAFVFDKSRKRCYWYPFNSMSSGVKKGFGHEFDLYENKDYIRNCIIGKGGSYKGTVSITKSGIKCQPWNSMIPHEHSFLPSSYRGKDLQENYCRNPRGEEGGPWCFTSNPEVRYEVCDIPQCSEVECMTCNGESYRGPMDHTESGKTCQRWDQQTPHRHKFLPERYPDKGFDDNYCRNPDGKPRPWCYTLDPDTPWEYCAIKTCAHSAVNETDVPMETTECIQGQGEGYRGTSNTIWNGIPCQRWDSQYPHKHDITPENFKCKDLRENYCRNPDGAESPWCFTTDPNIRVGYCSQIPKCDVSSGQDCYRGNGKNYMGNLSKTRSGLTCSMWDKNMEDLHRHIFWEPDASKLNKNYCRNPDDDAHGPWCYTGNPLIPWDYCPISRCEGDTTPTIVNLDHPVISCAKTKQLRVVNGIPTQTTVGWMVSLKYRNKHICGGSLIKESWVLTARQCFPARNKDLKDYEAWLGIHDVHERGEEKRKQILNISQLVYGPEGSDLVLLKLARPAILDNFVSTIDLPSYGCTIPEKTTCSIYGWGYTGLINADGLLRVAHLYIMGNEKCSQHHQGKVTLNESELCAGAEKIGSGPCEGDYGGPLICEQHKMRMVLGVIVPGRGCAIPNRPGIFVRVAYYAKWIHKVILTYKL

Row | Binder | IC50, neutralization of HGF stimulated BrdU incorporation in 4 MBr-5 cells [1] [nM] | EC50, inhibition of HGF-stimulated c-Met phosphorylation in PC-3 cells, Average of Two Trials [2] [nM] | Kd [3] [nM] | koff [3] [s⁻¹] | kon [3] [M⁻¹ s⁻¹] | binding result [4] | binding result [5] | binding result [6] | IC50 [7] [nM] | Kd [8] [nM] | koff [8] [s⁻¹] | kon [8] [M⁻¹ s⁻¹]
1 | sh2B8-9 (G1m(3)) = hu2B8 Hv5-51.1 + IgG1 constant region (G1m(3) allotype, allele 2) plus hu2B8 Kv1-39.1 + Kappa constant region (Km(3) allotype, allele 2) (antibody, Superhumanized 2B8 variant, human IgG1 kappa, made in 293T cells) heavy: not shown light: DIQMTQSPSSLSASVGDRVTITCKASENVVSYVSWYQQKPGKAPKLLIYGASNRNTGVPSRFSGSGSGTDFTLTISSLQPEDFATYYCGQSYNYPYTFGQGTKLEIKRTVAAPSVFIFPPSDEQLKSGTASVVCLLNNFYPREAKVQWKVDNALQSGNSQESVTEQDSKDSTYSLSSTLTLSKADYEKHKVYACEVTHQGLSSPVTKSFNRGEC | 0.52 | 0.93 | 0.0058 | 1.4e-05 | 2.5e+06 | no binding | binds | binds | 4.2 | – | – | –
2 | HE2B8-1 (LR2B8HC + IgG1 constant region G1m(3) allotype allele 1, plus LR2B8LC + Kappa constant region Km(3) allotype allele 1) (antibody, V domains shown, Human Engineered 2B8 variant, human IgG1 kappa, made in HEK293E cells) VH: QVQLVQPGAEVVKPGTSVKLSCKASGYTFTTYWMHWVNQAPGQGLEWIGEINPTNGHTNYNEKFKGKATLTVDKSTSTAYMELSSLRSEDTAVYYCARNYVGSIFDYWGQGTLLTVSS VL: DIVMTQSPDSMAMSVGERVTLNCKASENVVSYVSWYQQKPGQSPKLLIYGASNRNTGVPDRFSGSGSATDFTLTISSVQAEDVADYHCGQSYNYPYTFGQGTKLEIKR | 0.47 | 0.8 | – | – | – | no binding | binds | binds | 6 | 0.0071 | 1.4e-05 | 2.2e+06
3 | HE2B8-3 (LRMR2B8HC + IgG1 constant region G1m(3) allotype allele 1, plus LR2B8LC + Kappa constant region Km(3) allotype allele 1) (antibody, V domains shown, Human Engineered 2B8 variant, human IgG1 kappa, made in HEK293E cells) VH: QVQLVQPGAEVKKPGTSVKLSCKASGYTFTTYWMHWVRQAPGQGLEWIGEINPTNGHTNYNQKFQGRATLTVDKSTSTAYMELSSLRSEDTAVYYCARNYVGSIFDYWGQGTLLTVSS VL: DIVMTQSPDSMAMSVGERVTLNCKASENVVSYVSWYQQKPGQSPKLLIYGASNRNTGVPDRFSGSGSATDFTLTISSVQAEDVADYHCGQSYNYPYTFGQGTKLEIKR | 0.55 | 0.79 | – | – | – | no binding | binds | binds | 5.9 | 0.002 | 4.1e-06 | 2e+06
4 | HE2B8-2 (LR2B8HC + IgG1 constant region G1m(3) allotype allele 1, plus LRMR2B8LC + Kappa constant region Km(3) allotype allele 1) (antibody, V domains shown, Human Engineered 2B8 variant, human IgG1 kappa, made in HEK293E cells) VH: QVQLVQPGAEVVKPGTSVKLSCKASGYTFTTYWMHWVNQAPGQGLEWIGEINPTNGHTNYNEKFKGKATLTVDKSTSTAYMELSSLRSEDTAVYYCARNYVGSIFDYWGQGTLLTVSS VL: DIVMTQSPDSLAMSLGERVTLNCKASENVVSYVSWYQQKPGQSPKLLIYGASNRESGVPDRFSGSGSATDFTLTISSVQAEDVADYHCGQSYNYPYTFGQGTKLEIKR | 0.66 | 0.88 | – | – | – | no binding | binds | binds | 5.7 | 0.0052 | 9.6e-06 | 1.8e+06
